Assay results taken from PMC5882647, “Simultaneous Monitoring of Cell-surface Receptor and Tumor-targeted Photodynamic Therapy via TdT-initiated Poly-G-Quadruplexes”.

Target: c-Met-Fc fusion protein (UniProt P08581 25-932)
Test: EMSA; EMSA: DNA (printed 200 nmol) with c-Met-Fc or BSA (printed 200 nmol) in 10 uL DPBS, 30 min, 37 C; native 4-20% TBE gel, SYBR Green II; pH not stated
Conditions: protein: recombinant; tags: Fc; chain copies: 2

Sequence of c-Met-Fc fusion protein (P08581 25-932): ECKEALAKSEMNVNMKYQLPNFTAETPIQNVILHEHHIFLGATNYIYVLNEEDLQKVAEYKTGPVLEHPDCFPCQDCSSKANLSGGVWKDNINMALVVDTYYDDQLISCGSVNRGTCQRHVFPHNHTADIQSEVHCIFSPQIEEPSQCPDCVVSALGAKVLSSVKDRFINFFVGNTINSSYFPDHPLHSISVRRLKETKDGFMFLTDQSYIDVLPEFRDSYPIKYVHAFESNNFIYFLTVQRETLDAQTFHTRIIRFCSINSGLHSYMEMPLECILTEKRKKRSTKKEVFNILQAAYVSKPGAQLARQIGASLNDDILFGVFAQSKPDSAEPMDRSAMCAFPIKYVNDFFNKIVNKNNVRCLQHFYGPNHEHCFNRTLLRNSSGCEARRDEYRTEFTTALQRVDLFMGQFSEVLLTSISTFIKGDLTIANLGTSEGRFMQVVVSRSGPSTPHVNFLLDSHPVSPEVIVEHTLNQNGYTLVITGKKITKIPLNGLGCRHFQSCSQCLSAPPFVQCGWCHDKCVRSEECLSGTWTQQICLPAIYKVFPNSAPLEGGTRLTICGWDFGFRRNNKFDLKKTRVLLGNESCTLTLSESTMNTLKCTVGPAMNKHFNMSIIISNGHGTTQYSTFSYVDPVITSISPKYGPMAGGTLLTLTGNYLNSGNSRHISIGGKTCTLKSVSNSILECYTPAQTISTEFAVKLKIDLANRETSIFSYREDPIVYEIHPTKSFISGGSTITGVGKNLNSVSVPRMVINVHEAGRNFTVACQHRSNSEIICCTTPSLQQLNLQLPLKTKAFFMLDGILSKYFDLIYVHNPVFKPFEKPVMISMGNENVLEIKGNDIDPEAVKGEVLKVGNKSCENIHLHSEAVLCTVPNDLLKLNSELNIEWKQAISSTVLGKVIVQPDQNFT

Binder | binding result
Lib-primer (LP) (ssDNA) DNA: ATTTAGAGTGACGCAGCAGGACACGGTGGCTTAGTTTTTCAAGGCTTAGTTTTTTTTTTTTTTTTTTAATACAACCTCTCA | no binding
aptamer-primer (AP; SL1 aptamer + poly-T linker + primer) (ssDNA) DNA: ATCAGGCTGGATGGTAGCTCGGTCGGGGTGGGTGGGTTGGCAAGTCTGATTTTTTTTTTTTTTTTTTAATACAACCTCTCA | binds
